The results in this text go back to patent US20190119331A1, “SYSTEM AND METHOD OF OPTOGENETICALLY CONTROLLING METABOLIC PATHWAYS FOR THE PRODUCTION OF CHEMICALS” (The Trustees of Princeton University, published 2019).

One experiment has as its target Gal4p (yeast (Saccharomyces cerevisiae), UniProt P04386). Description: cell-based or functional assay.
In experiment [1] the target is Gal4p-PSD fusion protein (yeast (Saccharomyces cerevisiae); Arabidopsis thaliana) (UniProt P04386).

B1: Gal80p (other)
chain: MDYNKRSSVSTVPNAAPIRVGFVGLNAAKGWAIKTHYPAILQLSSQFQITALYSPKIETSIATIQRLKLSNATAFPTLESFASSSTIDMIVIAIQVASHYEVVMPLLEFSKNNPNLKYLFVEWALACSLDQAESIYKAAAERGVQTIISLQGRKSPYILRAKELISQGYIGDINSIEIAGNGGWYGYERPVKSPKYIYEIGNGVDLVTTTFGHTIDILQYMTSSYFSRINAMVFNNIPEQELIDERGNRLGQRVPKTVPDHLLFQGTLLNGNVPVSCSFKGGKPTKKFTKNLVIDIHGTKGDLKLEGDAGFAEISNLVLYYSGTRANDFPLANGQQAPLDPGYDAGKEIMEVYHLRNYNAIVGNIHRLYQSISDFHFNTKKIPELPSQFVMQGFDFEGFPTLMDALILHRLIESVYKSNMMGSTLNVSNISHYSL
As to B1, the “GFP expression from PGAL1-GFP reporter (GFP/OD600), blue light (GAL80 expressed) against dark, strain YEZ100 (OptoINVRT1, gal4 gal80 deleted background)” value in the experiment with Gal4p is 45.7 fold decrease. In addition, the GFP expression from PGAL1-GFP reporter (GFP/OD600), blue light against dark, strain YEZ102 (OptoINVRT3) in experiment [1] is 70 fold.
